# The supplement of paper PMC11246515
# ± gives the standard deviation of the averaged measurements.
# Test: total protein half-life in vivo (active degradation + dilution); higher = more stable protein
# [1] = E. coli NCM3722 delta-clpP delta-lon delta-hslV, growth: N-lim chemostat, doubling time 6 h
# [2] = E. coli NCM3722 delta-clpP, growth: N-lim chemostat, doubling time 6 h
# [3] = E. coli NCM3722 delta-hslV, growth: N-lim chemostat, doubling time 6 h
# [4] = E. coli NCM3722 delta-lon, growth: N-lim chemostat, doubling time 6 h
# [5] = E. coli NCM3722 delta-smpB, growth: N-lim chemostat, doubling time 6 h
# [6] = wild type E. coli NCM3722, growth: C-lim chemostat, doubling time 6 h
# [7] = wild type E. coli NCM3722, growth: C-lim chemostat, doubling time 12 h
# [8] = wild type E. coli NCM3722, growth: N-lim chemostat, doubling time 6 h
# [9] = wild type E. coli NCM3722, growth: N-lim chemostat, doubling time 12 h
# [10] = wild type E. coli NCM3722, growth: P-lim chemostat, doubling time 6 h
# [11] = wild type E. coli NCM3722, growth: P-lim chemostat, doubling time 12 h
# [12] = wild type E. coli NCM3722, growth: C-lim chemostat, doubling time 3 h
Sequence,total protein half-life in vivo [1] [h],total protein half-life in vivo [2] [h],total protein half-life in vivo [3] [h],total protein half-life in vivo [4] [h],total protein half-life in vivo [5] [h],total protein half-life in vivo [6] [h],total protein half-life in vivo [7] [h],total protein half-life in vivo [8] [h],total protein half-life in vivo [9] [h],total protein half-life in vivo [10] [h],total protein half-life in vivo [11] [h],total protein half-life in vivo [12] [h]
MAAINTKVKKAVIPVAGLGTRMLPATKAIPKEMLPLVDKPLIQYVVNECIAAGITEIVLVTHSSKNSIENHFDTSFELEAMLEKRVKRQLLDEVQSICPPHVTIMQVRQGLAKGLGHAVLCAHPVVGDEPVAVILPDVILDEYESDLSQDNLAEMIRRFDETGHSQIMVEPVADVTAYGVVDCKGVELAPGESVPMVGVVEKPKADVAPSNLAIVGRYVLSADIWPLLAKTPPGAGDEIQLTDAIDMLIEKETVEAYHMKGKSHDCGNKLGYMQAFVEYGIRHNTLGTEFKAWLEEEMGIKK [P0AEP3],4.77 ± 0.41,4.87 ± 0.81,4.91 ± 0.62,5.41 ± 0.14,4.728 ± 0.0092,5.71 ± 0.23,10.8 ± 1.1,4.65 ± 0.13,7.63 ± 0.25,5.72 ± 0.074,11.6 ± 0.14,–
MAANAFVRARIDEDLKNQAADVLAGMGLTISDLVRITLTKVAREKALPFDLREPNQLTIQSIKNSEAGIDVHKAKDADDLFDKLGI,2.38 ± 0.28,–,–,–,–,0.925 ± 0.13,0.789,0.421,4.6,0.432,1.38,–
MAAVNLRHIEIFHAVMTAGSLTEAAHLLHTSQPTVSRELARFEKVIGLKLFERVRGRLHPTVQGLRLFEEVQRSWYGLDRIVSAAESLREFRQGELSIACLPVFSQSFLPQLLQPFLARYPDVSLNIVPQESPLLEEWLSAQRHDLGLTETLHTPAGTERTELLSLDEVCVLPPGHPLAVKKVLTPDDFQGENYISLSRTDSYRQLLDQLFTEHQVKRRMIVETHSAASVCAMVRAGVGISVVNPLTALDYAASGLVVRRFSIAVPFTVSLIRPLHRPSSALVQAFSGHLQAGLPKLVTSLDAILSSATTA,7.04 ± 0.23,4.89,–,–,5.18 ± 2.1,6.28,11.805 ± 0.0096,5.91 ± 0.071,> 16,–,13.1 ± 0.34,3.2 ± 0.26
MADITLISGSTLGGAEYVAEHLAEKLEEAGFTTETLHGPLLEDLPASGIWLVISSTHGAGDIPDNLSPFYEALQEQKPDLSAVRFGAIGIGSREYDTFCGAIDKLEAELKNSGAKQTGETLKINILDHDIPEDPAEEWLGSWVNLLK,3.22 ± 0.1,2.99,2.93 ± 0.18,3.47 ± 0.17,2.78 ± 0.15,4.66 ± 0.56,9.28 ± 2,2.67 ± 0.13,3.68 ± 0.24,5.07 ± 0.09,9.52 ± 0.099,2.86 ± 0.48
MADKELKFLVVDDFSTMRRIVRNLLKELGFNNVEEAEDGVDALNKLQAGGYGFVISDWNMPNMDGLELLKTIRADGAMSALPVLMVTAEAKKENIIAAAQAGASGYVVKPFTAATLEEKLNKIFEKLGM [P0AE67],4.52 ± 0.43,4.01,3.69 ± 0.95,5.08 ± 0.6,4.41,4.08 ± 0.41,5.96 ± 0.14,3.82 ± 0.84,5.61 ± 0.14,3.91,6.33 ± 0.44,2.33 ± 0.22
MADTKAKLTLNGDTAVELDVLKGTLGQDVIDIRTLGSKGVFTFDPGFTSTASCESKITFIDGDEGILLHRGFPIDQLATDSNYLEVCYILLNGEKPTQEQYDEFKTTVTRHTMIHEQITRLFHAFRRDSHPMAVMCGITGALAAFYHDSLDVNNPRHREIAAFRLLSKMPTMAAMCYKYSIGQPFVYPRNDLSYAGNFLNMMFSTPCEPYEVNPILERAMDRILILHADHEQNASTSTVRTAGSSGANPFACIAAGIASLWGPAHGGANEAALKMLEEISSVKHIPEFVRRAKDKNDSFRLMGFGHRVYKNYDPRATVMRETCHEVLKELGTKDDLLEVAMELENIALNDPYFIEKKLYPNVDFYSGIILKAMGIPSSMFTVIFAMARTVGWIAHWSEMHSDGMKIARPRQLYTGYEKRDFKSDIKR [P0ABH7],4.1 ± 0.75,3.04 ± 0.12,2.942 ± 0.0099,3.4 ± 0.35,3.08 ± 0.34,5.24 ± 0.23,9.82 ± 1.7,2.94 ± 0.063,4.55 ± 0.57,5.57 ± 0.27,10.5 ± 0.35,3.18 ± 0.15
MADVHDKATRSKNMRAIATRDTAIEKRLASLLTGQGLAFRVQDASLPGRPDFVVDEYRCVIFTHGCFWHHHHCYLFKVPATRTEFWLEKIGKNVERDRRDISRLQELGWRVLIVWECALRGREKLTDEALTERLEEWICGEGASAQIDTQGIHLLA,5.56,4.58 ± 0.72,3.63 ± 0.22,3.67,4.35 ± 1.4,4.16,8.92,3.98 ± 0.43,5.45 ± 0.16,3.9 ± 0.41,9.27 ± 3.3,–
MADYQGKNVVIIGLGLTGLSCVDFFLARGVTPRVMDTRMTPPGLDKLPEAVERHTGSLNDEWLMAADLIVASPGIALAHPSLSAAADAGIEIVGDIELFCREAQAPIVAITGSNGKSTVTTLVGEMAKAAGVNVGVGGNIGLPALMLLDDECELYVLELSSFQLETTSSLQAVAATILNVTEDHMDRYPFGLQQYRAAKLRIYENAKVCVVNADDALTMPIRGADERCVSFGVNMGDYHLNHQQGETWLRVKGEKVLNVKEMKLSGQHNYTNALAALALADAAGLPRASSLKALTTFTGLPHRFEVVLEHNGVRWINDSKATNVGSTEAALNGLHVDGTLHLLLGGDGKSADFSPLARYLNGDNVRLYCFGRDGAQLAALRPEVAEQTETMEQAMRLLAPRVQPGDMVLLSPACASLDQFKNFEQRGNEFARLAKELG,5.112 ± 0.021,4.445 ± 0.041,4.9241 ± 0.00076,5.5 ± 0.35,4.73 ± 0.097,5.38 ± 0.69,12.18 ± 0.043,4.57 ± 0.075,9.03 ± 0.63,5.815 ± 0.041,–,–
MAEGKAMSEFLPFSRPAMGVEELAAVKEVLESGWITTGPKNQALEQAFCQLTGNQHAIAVSSATAGMHITLMALKIGKGDEVITPSLTWVSTLNMISLLGATPVMVDVDRDTLMVTPEAIESAITPRTKAIIPVHYAGAPADIDAIRAIGERYGIAVIEDAAHAVGTYYKGRHIGAKGTAIFSFHAIKNITCAEGGLIVTDNENLARQLRMLKFHGLGVDAYDRQTWGRAPQAEVLTPGYKYNLTDINAAIALTQLVKLEHLNTRRREIAQQYQQALAALPFQPLSLPAWPHVHAWHLFIIRVDEQRCGISRDALMEALKERGIGTGLHFRAAHTQKYYRERFPTLSLPNTEWNSERICSLPLFPDMTTADADHVITALQQLAGQ,4.86 ± 0.74,3.7 ± 0.29,3.72 ± 0.19,4.52 ± 0.06,3.93 ± 0.41,4.78 ± 0.6,9.35 ± 0.95,3.78 ± 0.055,6.38 ± 0.47,5.53 ± 0.55,11.7 ± 0.21,3.52 ± 0.55
MAEHLMSDVPFWQSKTLDEMSDAEWESLCDGCGQCCLHKLMDEDTDEIYFTNVACRQLNIKTCQCRNYERRFEFEPDCIKLTRENLPTFEWLPMTCAYRLLAEGKDLPAWHPLLTGSKAAMHGERISVRHIAVKESEVIDWQDHILNKPDWAQ [P0A8L5],3.88 ± 0.37,–,–,–,–,1.17,–,–,–,–,1.97,–
MAENQSTVENAKEKLDRWLKDGITTPGGKLPSERELGELLGIKRMTLRQALLNLEAESKIFRKDRKGWFVTQPRFNYSPELSASFQRAAIEQGREPSWGFTEKNRTSDIPETLAPLIAVTPSTELYRITGWGALEGHKVFYHETYINPEVAPGFIEQLENHSFSAVWEKCYQKETVVKKLIFKPVRMPGDISKYLGGSAGMPAILIEKHRADQQGNIVQIDIEYWRFEAVDLIINL [P0ACM9],6.16 ± 0.15,5.99 ± 0.32,5.13 ± 0.17,–,4.95,–,13.2 ± 3.2,5.84 ± 0.19,9.06 ± 1,5.01 ± 1.8,9.28,–
MAEVTQLKRYDARPINWGKWFLIGIGMLVSAFILLVPMIYIFVQAFSKGLMPVLQNLADPDMLHAIWLTVMIALIAVPVNLVFGILLAWLVTRFNFPGRQLLLTLLDIPFAVSPVVAGLVYLLFYGSNGPLGGWLDEHNLQIMFSWPGMVLVTIFVTCPFVVRELVPVMLSQGSQEDEAAILLGASGWQMFRRVTLPNIRWALLYGVVLTNARAIGEFGAVSVVSGSIRGETLSLPLQIELLEQDYNTVGSFTAAALLTLMAIITLFLKSMLQWRLENQEKRAQQEEHHEH [P0AEB0],4.83,5.5,4.23,–,4.22,4.97 ± 1.4,–,4.59,4.73,4.26,10.7 ± 2,2.64
MAFKIWQIGLHLQQQEAVAVAIVRGAKECFLQRWWRLPLENDIIKDGRIVDAQQLAKTLLPWSRELPQRHHIMLAFPASRTLQRSFPRPSMSLGEREQTAWLSGTMARELDMDPDSLRFDYSEDSLSPAYNVTAAQSKELATLLTLAERLRVHVSAITPDASALQRFLPFLPSHQQCLAWRDNEQWLWATRYSWGRKLAVGMTSAKELAAALSVDPESVAICGEGGFDPWEAVSVRQPPLPPPGGDFAIALGLALGKAY,4.83,3.81,2.84,–,2.82 ± 0.24,–,11.7 ± 1.8,–,–,3.857 ± 0.0092,8.02,–
MAFQVKIHQIRAFVEVARQGSIRGASRMLNMSQPALSKSIQELEEGLAAQLFFRRSKGVTLTDAGESFYQHASLILEELRAAQEDIRQRQGQLAGQINIGMGASISRSLMPAVISRFHQQHPQVKVRIMEGQLVSMINELRQGELDFTINTYYQGPYDHEFTFEKLLEKQFAIFCRPGHPAIGARSIKQLLDYSWTMPTPHGSYYKQLSELLDDQAQTPQVGVVCETFSACISLVAKSDFLSKLPEEMGCDPLHGQGLVMLPVSEILPKAAYYLIQRRDSRQTPLTASLITQFRRECGYLQS,–,–,–,2.39 ± 0.088,–,–,–,0.867,0.857,–,–,–
